Measurements: US20060275211A1

B1: H16-1.29.1.1 (antibody, part only; not given: light chain, V domains shown, part only)
VH: CRLVESGAEVKKPGASVKVSCKASGYTFTGYYMHWVRQAPGQGLEWMGWINPNSGGTNYAQKFQGRVTMTRDTSISTAYMELSRLRSDDTAVYYCARDQVDIVATRYYYYYYGMDVWGQGTTVTVSSASTKGPSVFPLAPSSKST
B2: H16-1.92.1.1 (antibody, part only; not given: light chain, V domains shown, part only)
VH: EVLLVESGPGLVKPSETLSLTCTVSGGSISSSSYFWGWIRQPPGKGLEWIGSIYYSGNTYYNPSLKSRVTISVDTSKNRFSLKLSSVTAADTAVYCCASATTVTTAFDIWGQGTMVTVSSASTKGPSVFPLAPSS

Target: Tag5-161P2F10B, purified recombinant extracellular domain (ECD) of 161P2F10B (amino acids 46-875) (human) (UniProt O14638)
Test: SPR, MAb captured on CM5 chip, recombinant 161P2F10B 1-100 nM injected

Binder	Kd [nM]	koff [s⁻¹]	kon [M⁻¹ s⁻¹]
B1	26	0.00083	32000
B2	9.8	0.00036	37000
